Sequences and labels used below:
B3: XMcm4 (natural protein, UniProt P30664 1-863, looked up)
chain: MSSPTSTPSRRRNKRGRGSNPPTPHGEEVQSPPSQRRRTEDSTSIGELLPMPTSPSGDVQSPSGQELLFSSPAPSRHSAHQSELDLSSPLTYGTPSSRVEGTPRSGIRGTPARQRPDLGSARKVKQVDLHSDQPAAEELVTSEQSLGQKLVIWGTDVNVATCKEKFQRFVQRFIDPSAKEEDNVGLDLNEPIYMQRLEEINVVGDPFLNIDCDHLRNFDQDLYRQLVCYPQEVIPTFDMAANEIFFERYPDSILEHQIQVRPYNALKTRNMRSLNPEDIDQLITISGMVIRTSQIIPEMQEAFFKCQVCAFTTRVEIDRGRIAEPSVCKHCNTTHSMALIHNRSMFSDKQMIKLQESPEDMPAGQTPHTTILYGHNDLVDKVQPGDRVNVTGIYRAVPIRVNPRVRNVKSVYKTHIDVIHYRKTDSKRLHGIDEDTEQKLFTEERVAMLKELAAKPDIYERLAAALAPSIYEHEDIKKGILLQLFGGTRKDFSHTGRGKFRAEVNILLCGDPGTSKSQLLQYVFNLVPRGQYTSGKGSSAVGLTAYVMKDPETRQLVLQTGALVLSDNGICCIDEFDKMNESTRSVLHEVMEQQTLSIAKAGIICQLNARTSVLAAANPVESQWNPKKTTIENIQLPHTLLSRFDLIFLMLDPQDEAYDRRLAHHLVALYYQSEEQMKEEHLDMAVLKDYIAYARTYVNPRLSEEASQALIEAYVSMRKIGSGRGMVSAYPRQLESLIRLSEAHAKVRFSNKVETIDVEEAKRLHREALKQSATDPRTGIVDISILTTGMSATARKRKEELAQVLKKLIQSKGKTPALKYQQLFEDLRGQSDAAITKDMFDEALHALADDDYLTVTGKTVRLL

Test in all cases: co-purification by chromatography with densitometry
One test addresses T1, XMcm3 (Xenopus (endogenous in Xenopus egg …, UniProt P49739 1-807)).
T1 sequence (looked up): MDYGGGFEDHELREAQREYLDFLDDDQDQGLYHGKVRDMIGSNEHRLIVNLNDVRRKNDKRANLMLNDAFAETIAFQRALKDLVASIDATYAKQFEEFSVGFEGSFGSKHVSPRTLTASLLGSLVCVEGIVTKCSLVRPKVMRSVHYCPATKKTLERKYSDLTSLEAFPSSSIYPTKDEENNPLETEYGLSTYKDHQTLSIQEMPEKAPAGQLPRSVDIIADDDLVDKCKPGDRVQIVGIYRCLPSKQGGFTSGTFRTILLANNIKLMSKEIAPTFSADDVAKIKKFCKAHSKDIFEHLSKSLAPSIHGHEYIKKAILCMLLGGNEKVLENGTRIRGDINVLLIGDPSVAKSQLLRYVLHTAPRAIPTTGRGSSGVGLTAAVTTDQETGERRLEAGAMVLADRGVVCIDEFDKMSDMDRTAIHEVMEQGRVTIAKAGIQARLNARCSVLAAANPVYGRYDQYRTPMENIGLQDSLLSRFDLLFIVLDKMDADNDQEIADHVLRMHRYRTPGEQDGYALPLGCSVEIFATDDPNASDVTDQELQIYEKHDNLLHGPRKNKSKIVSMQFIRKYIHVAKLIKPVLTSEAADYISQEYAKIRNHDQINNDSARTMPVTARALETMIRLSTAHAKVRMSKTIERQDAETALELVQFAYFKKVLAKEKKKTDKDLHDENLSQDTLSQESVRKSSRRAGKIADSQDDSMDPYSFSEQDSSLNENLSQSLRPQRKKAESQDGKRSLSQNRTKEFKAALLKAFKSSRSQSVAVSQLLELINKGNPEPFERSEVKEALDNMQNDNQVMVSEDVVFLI

Another test addresses T2, XMcm2 (Xenopus (endogenous in Xenopus egg …, UniProt P55861 1-886)).
T2 sequence (looked up): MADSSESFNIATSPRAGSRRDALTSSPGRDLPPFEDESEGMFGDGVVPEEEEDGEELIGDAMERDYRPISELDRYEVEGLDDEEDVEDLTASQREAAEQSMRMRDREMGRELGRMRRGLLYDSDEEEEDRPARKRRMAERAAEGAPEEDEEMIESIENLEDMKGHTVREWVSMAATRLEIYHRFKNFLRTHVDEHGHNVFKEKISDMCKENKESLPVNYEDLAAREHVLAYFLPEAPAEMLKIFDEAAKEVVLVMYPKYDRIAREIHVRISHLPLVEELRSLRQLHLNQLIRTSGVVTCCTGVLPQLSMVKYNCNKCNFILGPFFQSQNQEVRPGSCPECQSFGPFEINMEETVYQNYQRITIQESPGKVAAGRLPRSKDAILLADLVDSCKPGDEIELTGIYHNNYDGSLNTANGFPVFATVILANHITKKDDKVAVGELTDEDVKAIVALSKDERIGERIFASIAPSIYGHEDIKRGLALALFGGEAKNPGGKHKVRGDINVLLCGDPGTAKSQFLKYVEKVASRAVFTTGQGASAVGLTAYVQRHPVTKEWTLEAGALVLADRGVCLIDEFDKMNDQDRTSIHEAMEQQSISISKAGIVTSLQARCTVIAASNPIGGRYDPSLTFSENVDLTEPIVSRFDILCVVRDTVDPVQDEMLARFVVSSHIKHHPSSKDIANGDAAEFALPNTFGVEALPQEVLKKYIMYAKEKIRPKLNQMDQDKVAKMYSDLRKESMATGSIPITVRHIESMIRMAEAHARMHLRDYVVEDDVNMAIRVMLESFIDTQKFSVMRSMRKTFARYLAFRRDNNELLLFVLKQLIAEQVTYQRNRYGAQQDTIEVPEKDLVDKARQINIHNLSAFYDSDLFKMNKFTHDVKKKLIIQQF

The test “XMcm4” has as its target B3.

B1: XMcm5 (natural protein, UniProt P55862 1-735, looked up)
chain: MSGFDDLGVYYSDSFGGEQQVGDDGQAKKSQLKKRFREFLRQYRIGTDRTGFTFKYRDELKRHYNLGEYWIEVEMEDLASFDEDLADYLYKQPTEHLQLLEEAAQEVADEVTRPRPAGEETIQEIQVMLRSDANPANIRSLKSEQMSHLVKIPGIIIAATAVRAKATKISIQCRSCRNTIGNIAVRPGLEGYAMPRKCNTEQAGRPNCPLDPYFIIPDKCKCVDFQTLKLQESPDAVPHGELPRHMQLYCDRYLCDKVVPGNRVTIMGIYSIRKSGKTSTKGRDRVGVGIRSSYIRVVGIQVDTEGTGRSAAGAITPQEEEEFRRLAAKPDIYETVAKSIAPSIYGSSDIKKAIACLLFGGSRKRLPDGLTRRGDVNLLMLGDPGTAKSQLLKFVERCSPIGVYTSGKGSSAAGLTASVMRDPVSRNFIMEGGAMVLADGGVVCIDEFDKMREDDRVAIHEAMEQQTISIAKAGITTTLNSRCSVLAAANSVYGRWDDTKGEENIDFMPTILSRFDMIFIVKDEHNEQRDMTLAKHVMNVHLSARTQSSSVEGEVDLNTLKKYIAYCRAKCGPRLSAEAAEKLKNRYILMRSGAREHERETEKRSSIPITVRQLEAIVRISESLGKMKLQPFATETDVEEALRLFQVSTLDAAMSGSLSGVEGFTTQEDQEMLSRIEKQMKKRFAIGSQVSEHSIIQDFLKQKYPEHAIHKVLSLMMRRGEIQHRLQRKVLYRIK
In the case of B1, the “stoichiometry N” value in the test with XMcm3 was determined as 1.2 XMcm5 per 1.0 XMcm3.

B2: XMcm6 (natural protein, UniProt Q5FWY4 1-821, looked up)
chain: MELGGPAAAGDTDIAGQQLFKDELSDKCQKLFLEFLEECKGKDGSNLYVSAAEELIRPERNTLAVNFTDIEYYNQQLATTIQEEYYRVYPHLCRAVRSFARQMGNIPANKEFYIAFSDFPARQKIRELSSAKIGTLLRISGQVVRTHPVHPELVSGTFLCMDCQSIVKDVEQQFRYTQPTICKNPVCANRRRFTLDTNKSRFVDFQKVRIQETQAELPRGAIPRSVEIILRAEAVESAMAGDRCDFTGTLIVVPDVSALAAGDARMETGAKVTGGEGFNSEGVQGLKALGVRDLSYRLAFLACYVGATNPRFGGKDLREEDQTAESIKNQMTVQEWEKVFEMSQDKNLYHNLCTSLFPTIHGNDEIKRGVLLMLFGGVPKTTMEGTSLRGDINVCIVGDPSTSKSQFLKHVEEFSPRAVYTSGKASSAAGLTAAVVKDEESHEFVIEAGALMLADNGVCCIDEFDKMDLKDQVAIHEAMEQQTISITKAGVKATLNARTSILAAANPVGGRYERSKSLKHNVNLSAPIMSRFDLFFILVDECNEVTDYAIARRIVDLHARNEESIERVYSIEDIQRYLLFARQFQPKITKEAEEFIVEQYRRLRQRDGSGVAKSSWRITVRQLESLIRLSESMARMHCSDEVQPKHVKEAFRLLSKSIIRVDTPDVSFDQGEDEKNIEGENNGNLNNGEEAMETNQDEPINEKPSSNAGLKMSFAEYKQISNLLVLYMQKMEETEEECHLTTTDLVNWYLKEMEAEIETETELILKKRLIEKVIHRLIYYDHILIELNKSELKTMDDTKETGEDAAEDRILVVNPNYMLED
With B2, the “stoichiometry N” value with XMcm2 amounted to 1.1 XMcm6 per 1.0 XMcm2; with XMcm4 it was 1 XMcm6 per 1.0 XMcm4.
B3: the “stoichiometry N” value in the test with XMcm2 was determined as 1.1 XMcm4 per 1.0 XMcm2.

B4: XMcm7 (natural protein, UniProt Q91876 1-720, looked up)
chain: MPRDYQTEKEKCKTFLQEFYKDDEIGKKHFKYGVQLANIAHREQVALYIDLDDLAEEDPELVDAICENTRRYTNLFADAVQELLPQYKEREVVHKDALDVYIEHRLMMEQRGRDPNEMRDSQNQYPPELMRRFELYFKAPSSSKARVVRDVKADSIGKLVNIRGIVTRVTEVKPMMVVATYTCDQCGAETYQPIQSPTFMPLIMCPSRECQTNRSGGRLYLQTRGSKFIKFQELKIQEHSDQVPVGNIPRCMSVYVRGENTRLAQPGDHVGITGVFLPMLRTGFRQVVQGLLSETYLECHRLVKMNKSEDDELGTEELSEEELRQITEEDFYEKLAASIAPEIYGHEDVKKALLLLLVGGVDNSPRGMKIRGNINICLMGDPGVAKSQLLSYIDRLAPRSQYTTGRGSSGVGLTAAVMKDPVTGEMTLEGGALVLADQGVCCIDEFDKMMDTDRTAIHEVMEQQTISIAKAGIMTTLNARCSILAAANPAYGRYNPKKTVEQNIQLPAALLSRFDVLWLIQDKPDRDNDLRLAQHITYVHQHSKQPPSQFQPLDMKLMRRYITMCKRKQPAIPEALADYLTAAYVEMRKEARTNKDMTFTSARTLLSVLRLSTALARLRLEDVVEKEDVNEAMRLMEMSKDSLLGDKGHTSRTQRPADVIFSTIREMVPEKGARSVKYSEAEQRCVSKGFTPAQFEAALEEYEELNVWLVNQARTKITFV
As for B4, the “stoichiometry N” value is 1.1 XMcm7 per 1.0 XMcm2 with XMcm2 and 1.1 XMcm7 per 1.0 XMcm4 with XMcm4. The binding result with XMcm3 is “binds”.

The term stoichiometry N denotes the number of molecules, sites or subunits per partner or assembly.

The record behind these values is publication PMC3626232 (The Journal of biological chemistry, 2000).
